Experimental data: the supplement of paper PMC9170038

test system: MS2 coat protein; experiment: apparent KD of MS2 coat protein; higher = weaker reporter binding; settings: Eterna round: R107; input ligand: theophylline 20 uM
Experimental: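 RNA-MaP round R107: designed RNA switches with theophylline, tryptophan, arginine or FMN aptamers are transcribed on-chip within common flanks. They are titrated with SNAP-549-labelled MS2 coat protein in RNA-MaP buffer (100 mM Tris pH 7.5, 80 mM KCl, 4 mM MgCl2), without ligand or with the indicated ligand. Median apparent KD per design.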

Point of comparison: “ACGUUGAAGUCGGCCGCCACUGAUUUCAUGUUCAACAUGAGGAUCACCCAUGUACCUUAUGUUAACAGGACCGGGACGUAUACGA [JR_SSTryptoB_Sub002]”, “apparent KD of MS2 coat protein” value 341 nM. Against it:
- AUGCGGUGCGGAAGGAGCGAGUUUGCCUAUUUACAUGAGGAUCACCCAUGUCCUAAUGGGACUCAGGUAGGUCGCCGUUGUUGCA [Same State Arginine B GF30] — 4.8-fold lower, 71.4 nM
- AGCCGCGUUCUUUCUUUCUUUCUAGCGGCACGAGGACCGGUACGGCCGCCACUCGAAGACAUGAGGAUCACCCAUGUAGUGGGUA [The Second Ring] — 2.4-fold lower, 142 nM
- GCCAGACAUGAGGAUCACCCAUGUAGCGAUACCAGCUCUGUUGUGAGCCCUUGGCAGCGCACUGGCAUCGCGGGUGAUCCUGCAU [(T)''-(Ms2)-(Theo)-(T)'-(M)'-(M)''_Design3] — 2.5-fold lower, 137 nM
- ACAUGAGGAUCACCCAUGUACAUGAGGGAAGGAGCGGUACAUGUGCCAGGUAGGUCGCCCAAGAGCAUCAGCCAUGUACAUCAGC [qasmullin] — 2.6-fold lower, 131 nM
- GCUGGACUUUCGGCCGCCACUGAGAGAGUCGUGUGAACAUGAGGAUCACCCAUGUAAUAUAUAUACAGGACCGGGAGGGUUGUGC [4.P] — 23-fold lower, 14.7 nM
- AUACAUGAGGAUCACCCAUGUAUAGAUGAAGGAGCGACCAGAGGGUCAGGUAGGUCGCAUCACAUGAGGAUCACCCAUGUAUCGA [DOUBLE!!! :-D #8] — 6.4-fold lower, 53 nM
- ACAUGAGGAUCACCCAUGUUCCUCAUUGAUACCAGUGAAAGAAGACGCCCUUGGCAGCGAGAAGAAGAAGAAGAAGAAGAAGAGG [6.A] — within 1.5-fold, 425 nM
- UGUAUGUGAUUUGAUACCAGACCAGCUGGUGGUACUUGAGGAUCACCCAAGUAGGUUUGGGUCCCUUGGCAGCAAAUCGCAUACU [SS Theo B #24 Ms10] — 2.4-fold lower, 142 nM
- AGAUCUUUCGAAAGAAGGAUCUUGGCUGAUACCAGAGACGAAAGUCUCCCUUGGCAGCAGUGCCAACAUGAGGAUCACCCAUGUA [Theophylline A 13] — 6.8-fold lower, 49.9 nM
- CUGCUACAUACGGCCGCCACUUUAAACAUGAGGAUCACCCAUGUACGGAAGGGUGGUAAAUGUUAAAGGACCGGGUAUGUAGCAA [Tryp B Ex t1] — within 1.5-fold, 296 nM
- GUUACAUGGCAAGCAUGUAUAUGGAUAGAUACCAGUUGAUAUUAAGACCCUUGGCAGCUGAGUACAUGAGGAUCACCCAUGUAAG [Theo A Ex t3] — 7.3-fold lower, 46.9 nM
- ACAUGAGGAUCACCCAUGUUAAGCACAGAAGGAGCGUGAAGAAACACAGGUAGGUCGCUGUACUUAUCGAGCGUUAGCUCGAUAC [JR_Nu_SSArginiA_Sub029] — 12-fold lower, 29 nM
- UAGUAACAUGAGGAUCACCCAUGUCCGGAUACCAGACAUAUACCAGUCCCUUGGCAGCCGCCAGUUAAAAUCUAACACAAAAGUU [theeternabot_sameState_MS2_Theo_A_34] — 6.2-fold lower, 55 nM
- AGAUGAGUCACGGCCGCCACUCACUUCAGGUUCACCCUUGGUUAACAUGAGGAUCACCCAUGUGGGAGGACCGGGUGAUGAGCAU [XTryp B #3] — 14-fold lower, 23.8 nM
- ACUAGUUGUGCAGAUACCAGGCAUGAGGAUCACCCAUGUUUGGGAUGUUCGCAUCUUCCUGUCCCUUGGCAGCUGUACAUCUAGA [Omei Theo B Exc v6] — 2-fold lower, 167 nM
- GGGCGCUAUCCCGCGAGGGAUAGCGUUCAACGAGGACCGGUACGGCCGCCACUCGAACGAGUGGGUACAUGAGGAUCACCCAUGU [Haa] — 7.3-fold lower, 46.4 nM
- GCACGACAUGAGGAUCACCCAUGUGCAGAUACCAGUAAUGUAUAUUACCCUUGGCAGCUGAGUAGAUCUGGAGGGCUAUAGGUAA [Same State Theophylline A GF10] — 18-fold lower, 18.7 nM
- GGACUAACCAGAAGGAGCGGCGCGCAGAAACUGCAAUUUCCUCCACACGAGGAUCACCCGUGUCAGGUAGGUCGCUGGUUAGUCG [ArgBX 29] — 23-fold lower, 15.1 nM
- AAACUGGGUGUAAAAUAAAUAAUCACUGAUACCAGACUAUAGUAUGUCCCUUGGCAGCAGAAACAUGAGGAUCACCCAUGUAAUA [JR_Nu_ExcTheophyA_Sub024] — 15-fold lower, 23 nM

same assay, conditions: Eterna round: R107; input ligand: theophylline 2 mM

Point of comparison: “ACAUGAGGAUCACCCAUGUAAGUUUCAGAAGGAGCGUGAAUUAUCACAGGUAGGUCGCUGAAGUUUGCAUAUACUUAUAAAUGUA [JR_ExcArginiA_Sub006]”, “apparent KD of MS2 coat protein” value 26.5 nM. Against it:
- ACGUUUUAGUCGGCCGCCACUGAUCUCAUGUUCAACAUGAGGAUCACCCAUGUACCUUUUUUUAUCAGGACCGGGACGUAAUAGA [JR_SSTryptoB_Sub005] — 14-fold higher, 359 nM
- GAUCGAAAUAACGCAUAGGAAAACUAUGCGCGAGGACCGGUACGGCCGCCACUCGUCCUCACAUGAGGAUCACCCAUGUACGAUC [#SwitchBubble #CuTurnoff] — within 1.5-fold, 27.6 nM
- AUCGGGCCUUUAGAACCGCCGUUCCCACCUCGAGGACCGGUACGGCCGCCACUCGGGUGACAUGAGGAUCACCCAUGUGGACGAA [Gexebidive] — 28-fold higher, 737 nM
- UGUAUGUGAUCUGAUACCAGUCCAACUGGUAAAACCUGAGGAUCACCCAGGUAAAAUUGGGACCCUUGGCAGCAGAUCGCAUACU — 1.6-fold lower, 16.1 nM
- CCUCAUGUGACGGCCGCCACUGAAGUGAUCGAAACAUGAGGAUCACCCAUGUUACGAUCAGAGAACAGGACCGGGUCAACAUGGG [Try B SS s1] — 2-fold lower, 13.1 nM
- UGGUACAUGGCGGCCGCCACUGGGUUGAAUACCUGAGGAUCACCCUGGUAAAACGCGAAAGCGACUAGGACCGGGUCAUGUACCU — 15-fold higher, 385 nM
- ACAUGGGUCUGAAGGAGCGCGAUAACAUGAGGAUCACCCAUGUAAAGUGGAACAUGAUAAUCGCAGGUAGGUCGCAGUAAAACCC [#26 Same State - Arginine B] — 18-fold higher, 476 nM
- CUACAUUUGUAGAAACCGGUCAACAAUAAUCGAGGACCGGUACGGCCGCCACUCGAUGUGAAAUCACAUGAGGAUCACCCAUGUA [Tryptophan A 18] — within 1.5-fold, 19.8 nM
- GGAAAAGAAAGAAAAGAAAUCCCUCCCUCCCGAGGACCGGUACGGCCGCCACUCGCCCUCCCUCCCACAUGAGGAUCACCCAUGU [Exclusion - Trytophan A] — within 1.5-fold, 27.8 nM
- CACAGUGCGAAAUUGAAACCGCACGAUCCUCGAGGACCGGUACGGCCGCCACUCGCGCGGGUCGUACAUGAGGAUCACCCAUGUC [Zaarmaqu] — 33-fold higher, 869 nM
- CUGCCAUGCAGAGAUACCAGUGAGCCCAUAACAUGAGGAUCACCCAUGUACGCCGCAGACCACCCUUGGCAGCUCUGCAUGGCAG [&#$*@] — 2.3-fold lower, 11.4 nM
- GCAUGUUGGUGGUAUCUGCGAAGGCGGAAUCGAGGACCGGUACGGCCGCCACUCGGCGACAUGAGGAUCACCCAUGUGGUUAGGA [Exclusion - Tryptophan A (Freestyle 8)] — 25-fold higher, 658 nM
- CGCACAUGAGGAUCACCCAUGUGAGGGCGACGAGGACCGGUACGGCCGCCACUCGCAAAACAUGAGGAUCACCCAUGUGCCGCCG [SSTA DOUBLE!!! :-D #3] — within 1.5-fold, 29.1 nM
- GGCCAUGGAAACAUGGCGGCGGCAUAAGCGCGAGGACCGGUACGGCCGCCACUCGGGCGACAUGAGGAUCACCCAUGUUCCUCAU [ETA NP+V+V2 #23 Same Structure] — 20-fold higher, 529 nM
- AUGCGGUGCGGAAGGAGCGAGUUUGCCUAUUUACAUGAGGAUCACCCAUGUCCUAAUGGGACUCAGGUAGGUCGCCGUUGUUGCA [Same State Arginine B GF30] — 1.8-fold higher, 47.9 nM
- AGCCGCGUUCUUUCUUUCUUUCUAGCGGCACGAGGACCGGUACGGCCGCCACUCGAAGACAUGAGGAUCACCCAUGUAGUGGGUA [The Second Ring] — 4.1-fold higher, 109 nM
- ACAUGAGGAUCACCCAUGUACAUGAGGGAAGGAGCGGUACAUGUGCCAGGUAGGUCGCCCAAGAGCAUCAGCCAUGUACAUCAGC [qasmullin] — 3.4-fold higher, 90 nM
- ACGUUGAAGUCGGCCGCCACUGAUUUCAUGUUCAACAUGAGGAUCACCCAUGUACCUUAUGUUAACAGGACCGGGACGUAUACGA [JR_SSTryptoB_Sub002] — 21-fold higher, 551 nM
